Reference: patent publication US20240109974A1 (SHANDONG SIMCERE BIOPHARMACEUTICAL, published 2024)
One block for each binder: values may come before it.

Legend:
[1] = biological target: T1, Cynomolgus TNFR2-His (Sino 90102-C08H) (cynomolgus monkey, UniProt A0A2K5VET2 132-366); assay: ELISA, plate coated with Cynomolgus TNFR2-His, detection with anti-human IgG Fc-HRP [panel A]
T1 construct: Bought protein; also called cynomolgus monkey TNFR2; recombinant cynomolgus monkey TNFR2 protein; not shown: His tag
T1 sequence: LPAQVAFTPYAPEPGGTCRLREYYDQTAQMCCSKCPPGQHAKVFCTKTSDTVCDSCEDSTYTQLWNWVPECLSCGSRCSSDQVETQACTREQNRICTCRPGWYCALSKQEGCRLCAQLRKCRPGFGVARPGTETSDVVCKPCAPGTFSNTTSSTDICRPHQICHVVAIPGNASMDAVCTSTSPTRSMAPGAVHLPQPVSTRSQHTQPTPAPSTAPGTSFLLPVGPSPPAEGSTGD
Procedure: (§1) The test humanized antibody against TNFR2 (as described in Example 1, the antibody was comprised of variable regions linked to IgG-Fc; the WT chimeric antibody also adopted the IgG-Fc structure) was subjected to 3.33-fold gradient dilution, loaded with 100 μl/well, and incubated with shaking at room temperature for 1.5 hours. The plate was washed, and then a working solution of murine anti-human IgG Fc-HRP (diluted at 1:10000) was added, loaded with 100 μl/well, and incubated with shaking at room temperature for 1.0 hour. The plate was washed again, and then the substrate TMB of HRP was added to develop colour. A stop solution was added to stop the reaction, and then a microplate reader (MD 13) was used to read the absorbance value. The binding curve of an antibody was drawn with antibody concentration as the abscissa and corresponding OD value as the ordinate, and fitted with four parameters (GraphPad Prism9) to calculate the EC50 value. The smaller the EC50 value, the stronger the binding ability of an antibody to human/cynomolgus monkey TNFR2. The binding effect of a humanized antibody was normalized to its corresponding human-murine chimeric antibody WT (see SEQ ID NOs: 38-43 for the sequence). The higher the percentage value, the better the binding effect of the humanized antibody. […]

[2] = biological target: T2, human TNFR2 on the surface of CHO-TNFR2 cells (human, UniProt P20333 23-461); assay: flow cytometry competition: antibody titrated on CHO-TNFR2 cells, then human TNFα-biotin, detection with PE-streptavidin [panel A]
T2 construct: whole, on cells
T2 sequence (looked up): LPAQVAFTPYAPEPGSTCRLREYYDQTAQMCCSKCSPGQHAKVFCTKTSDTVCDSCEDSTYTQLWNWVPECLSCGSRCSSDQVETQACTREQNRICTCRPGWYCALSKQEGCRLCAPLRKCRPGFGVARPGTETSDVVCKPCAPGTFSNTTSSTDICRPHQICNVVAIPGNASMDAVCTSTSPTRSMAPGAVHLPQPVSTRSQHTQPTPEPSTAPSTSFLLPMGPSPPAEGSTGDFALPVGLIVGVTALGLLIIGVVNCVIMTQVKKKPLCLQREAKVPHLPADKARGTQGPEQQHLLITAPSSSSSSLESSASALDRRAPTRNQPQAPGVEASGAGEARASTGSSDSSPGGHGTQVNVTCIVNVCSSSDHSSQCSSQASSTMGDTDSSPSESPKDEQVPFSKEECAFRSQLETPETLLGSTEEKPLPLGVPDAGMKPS
Procedure: (§2) CHO stable cells highly expressing human TNFR2 were used for the experiment (the same as CHO-TNFR2 in Example 4). The CHO-TNFR2 cells were digested, washed twice with DPBS, then stained with Live/Dead (L/D) (20 minutes at room temperature), and plated at a density of 1×10⁵ cells/50 μl/well. A test anti-TNFR2 antibody was diluted to 6 μg/ml with a staining buffer as the starting concentration: the antibody was subjected to 3.33-fold gradient dilution, with a total of 7 concentration points. The diluted antibody was added to the plated cells at 50 μl/well, and the mixture was mixed well by gentle pipetting, and incubated at 4° C. for 30 minutes. Then the diluted 100 ng/ml of human TNFα-biotin was added at 100 μl/well, and the mixture was mixed well by gentle pipetting, and then incubated at 4° C. for 30 minutes. The mixture was washed twice with a staining buffer, and then 0.12 μg/ml PE-streptavidin (BioLegend, Cat #405204) was added at 100 μl/well; the resulting mixture was incubated at 4° C. for 30 minutes. The mixture was washed twice with a staining buffer, and then 150 μl of staining buffer was added to resuspend the cells; signals were detected by a flow cytometer (Thermo Attune NxT). […]

[3] = biological target: T1, Cynomolgus TNFR2-His (Sino 90102-C08H); assay: ELISA, plate coated with Cynomolgus TNFR2-His, detection with anti-human IgG Fc-HRP [panel C]
Procedure: as §1

[4] = biological target: T2, human TNFR2 on the surface of CHO-TNFR2 …; assay: flow cytometry competition: antibody titrated on CHO-TNFR2 cells, then human TNFα-biotin, detection with PE-streptavidin [panel B]
Procedure: as §2

EC50 (read off the curve) [1]: ~0.01 µg/mL | IC50 (read off the curve) [2]: ~0.09 µg/mL
B1: 001-WT (antibody, V domains shown)
VH: EVQLQESGGGLVQPGGSLNLSCAASGFAFSTYDLSWVRQTPEKRLEWVAYINNGGISTYYSDTVKGRFTISRDNAKNTLYLQMSSLKSEDTAMYYCVRGPFYGSANYFDYWGQGTTVTVSS
VL: EIVMTQSPASLSLSVGETVTITCRTSESIYSNLPWYQQKQGKSPQLLVYDATKLAEGVPSRFSGSESGTQYSLKINSLQSEDFGTYYCQHFWVTPWTFGGGTKLEIK
notes: Human-murine chimeric wild-type molecule; also called human-murine chimeric antibody WT of #001

EC50 (read off the curve) [3]: ~0.01 µg/mL
B2: 224-WT (antibody, V domains shown)
VH: EVQLQESGPEIVKPGASVKLSCTASGFNNKDIYMHWVKQRPEQGLEWIGRIDPATGNTKHDPKFQDKATLSSDTSSNTAYLQFSSLTSEDTAVYYCAHSPYGDFGAMDYWGQGTTVTVSS
VL: DIQMTQSPAIMSASLGERVTMTCTASSSVSSNYLHWYQQKPGSSPKLWIYSTSNLPSGVPARFSGSGSGTSYSLTISSMEAEDAATYYCHQYHRSPWTFGGGTKLEIK
notes: Human-murine chimeric wild-type molecule; also called human-murine chimeric antibody WT of #224

IC50 (read off the curve) [4]: ~0.05 µg/mL
B3: 219-WT (antibody, V domains shown)
VH: EVQLQESGAELVRPGASVKLSCKASGYSFTNYWMNWVKQRPGQGLEWIGMIHPSDTETRLNQNFKDKATLTVDKSSSTSYMQLSSPTSEDSAVYYCARGEGLGAARSVSMDYWGQGTTVTVSS
VL: DILMTQSPSSLSASLGDRVTISCRASQDISNYLNWYQQKPDGTVKVLIYYTAILHSGVPSRFSGSGSGTDYSLTISNLEQEDIATYFCQQGNTLPWTFGGGTKLEIK
notes: Human-murine chimeric wild-type molecule
